Laboratory results: patent US20040229298A1
Values joined by “and” are separate entries in the source; they are usually repeats but may differ in a detail not shown here. Identical values can stand only once. Ends that are not written are not given here.

How the values were obtained:
[1] = biological target: GST-CARD14 PDZ domain 1 (human); test: G assay ELISA, 10 uM biotin peptide on anti-GST-captured GST-PDZ
[2] = biological target: GST-INADL PDZ domain 4 (human); test: as above
[3] = biological target: GST-KIAA0147 PDZ domain 2 (human); test: as above
[4] = biological target: GST-CASK PDZ domain 1 (human); test: as above
[5] = biological target: GST-LIM-RIL PDZ domain 1 (human); test: as above
[6] = biological target: GST-RGS12 PDZ domain 1 (human); test: as above
[7] = biological target: GST-ZO-2 PDZ domain 1 (human); test: as above
[8] = biological target: GST-MUPP1 PDZ domain 10 (human); test: as above
[9] = biological target: GST-INADL PDZ domain 8 (human); test: as above
[10] = biological target: GST-KIAA0545 PDZ domain 1 (human); test: as above
[11] = biological target: GST-Shank 1 PDZ domain 1 (human); test: as above
[12] = biological target: GST-Syntrophin gamma 1 PDZ domain 1 (human); test: as above
[13] = biological target: GST-KIAA0973 PDZ domain 1, clone #148.5 (human); test: as above
[14] = biological target: GST-DLG1 PDZ domain 1 (human); test: as above
[15] = biological target: GST-EBP50 PDZ domain 1, clone #311.1 (human); test: as above
[16] = biological target: GST-HTRA 3 PDZ domain 1 (human); test: as above
[17] = biological target: GST-KIAA0316 PDZ domain 1 (human); test: as above
[18] = biological target: GST-MUPP1 PDZ domain 13 (human); test: as above
[19] = biological target: GST-X-11 beta PDZ domain 1 (human); test: as above
[20] = biological target: GST-APXL1 PDZ domain 1 (human); test: as above
[21] = biological target: GST-NeDLG PDZ domain 2 (human); test: as above
[22] = biological target: GST-SAST2 PDZ domain 1 (human); test: G assay ELISA, E6 PL peptide titrated on constant GST-PDZ
[23] = biological target: GST-MAGI1 PDZ domain 2 (human); test: as above
[24] = biological target: GST-PSD95 PDZ domains 1-3 (human), P78352; test: as above
[25] = biological target: GST-SIP1 PDZ domain 1 (human); test: as above
[26] = biological target: GST-TIP1 PDZ domain (human); test: as above
[27] = biological target: GST-SAST1 PDZ domain (human), Q9Y2H9; test: as above
[28] = biological target: GST-DLG2 PDZ domain 3 (human); test: as above
[29] = biological target: GST-DLG3 PDZ domains 1-2 (human), Q92796; test: as above
GST-DLG3 PDZ domains 1-2 (human), Q92796, sequence (Q92796 other isoform, or with tags, fused parts or gaps limits assumed): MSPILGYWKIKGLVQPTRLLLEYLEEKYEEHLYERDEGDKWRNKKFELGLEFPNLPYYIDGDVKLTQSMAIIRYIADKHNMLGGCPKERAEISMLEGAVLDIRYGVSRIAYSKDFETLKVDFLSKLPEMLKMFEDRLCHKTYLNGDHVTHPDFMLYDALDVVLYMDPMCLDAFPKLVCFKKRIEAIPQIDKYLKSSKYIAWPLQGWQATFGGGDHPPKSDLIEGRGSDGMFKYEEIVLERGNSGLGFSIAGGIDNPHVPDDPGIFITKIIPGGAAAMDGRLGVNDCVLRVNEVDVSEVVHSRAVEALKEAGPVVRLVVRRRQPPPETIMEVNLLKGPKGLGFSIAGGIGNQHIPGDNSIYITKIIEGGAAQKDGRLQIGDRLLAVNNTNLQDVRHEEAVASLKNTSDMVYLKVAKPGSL

WTGRCMSCCRSSRTRRETQL (not fully specified; cysteine pairing not given here) [HPV16 E6 C-terminal PDZ ligand peptide (20 mer, biotinylated), P03126 139-158]
Ave OD [1]: 0.342 A450 nm | OD S/N (ratio to GST only well) [1]: 1.52 | Ave OD [2]: 0.357 A450 nm | OD S/N (ratio to GST only well) [2]: 2.15 | Ave OD [3]: 0.374 A450 nm | OD S/N (ratio to GST only well) [3]: 2.46 | Ave OD [4]: 0.36 A450 nm | OD S/N (ratio to GST only well) [4]: 1.15 | Ave OD [5]: 0.449 A450 nm | OD S/N (ratio to GST only well) [5]: 1.6 | Ave OD [6]: 0.429 A450 nm | OD S/N (ratio to GST only well) [6]: 3.96 | Ave OD [7]: 0.342 A450 nm | OD S/N (ratio to GST only well) [7]: 2.11 | Ave OD [8]: 0.393 A450 nm and 0.392 A450 nm | OD S/N (ratio to GST only well) [8]: 2.03 and 1.96 | Ave OD [9]: 0.388 A450 nm | OD S/N (ratio to GST only well) [9]: 1.58 | Ave OD [10]: 0.44 A450 nm | OD S/N (ratio to GST only well) [10]: 3.96 | Ave OD [11]: 0.385 A450 nm | OD S/N (ratio to GST only well) [11]: 1.71 | Ave OD [12]: 0.358 A450 nm | OD S/N (ratio to GST only well) [12]: 2 | Ave OD [13]: 0.378 A450 nm | OD S/N (ratio to GST only well) [13]: 1.68 | Ave OD [14]: 0.391 A450 nm | OD S/N (ratio to GST only well) [14]: 2.98 | Ave OD [15]: 0.432 A450 nm | OD S/N (ratio to GST only well) [15]: 2.05 | Ave OD [16]: 0.413 A450 nm | OD S/N (ratio to GST only well) [16]: 1.34 | Ave OD [17]: 0.343 A450 nm | OD S/N (ratio to GST only well) [17]: 2.34 | Ave OD [18]: 0.435 A450 nm and 0.411 A450 nm | OD S/N (ratio to GST only well) [18]: 1.56 and 1.75 | Ave OD [19]: 0.352 A450 nm | OD S/N (ratio to GST only well) [19]: 2.02 | Ave OD [20]: 0.461 A450 nm | OD S/N (ratio to GST only well) [20]: 3.14 | Ave OD [21]: 0.425 A450 nm | OD S/N (ratio to GST only well) [21]: 2.2 | EC50 [22]: 1.2 µM | EC50 [23]: 0.056 µM | EC50 [24]: 1 µM | EC50 [25]: 7.5 µM | EC50 [26]: 0.75 µM | EC50 [27]: 0.58 µM | EC50 [28]: 1.6 µM | EC50 [29]: 3.8 µM
